Data taken from PMC9482650, “Quantitative fragmentomics allow affinity mapping of interactomes” (Nature Communications, 2022).

Assays:
Test in all cases: holdup assay
Parameters in all cases: key: below the threshold = too weak to quantify, mostly under pKd 3.1 to 4
[1] = biological target: T1, CARD11, Q9BXL7
T1 sequence (Q9BXL7 662-765, limits assumed, looked up): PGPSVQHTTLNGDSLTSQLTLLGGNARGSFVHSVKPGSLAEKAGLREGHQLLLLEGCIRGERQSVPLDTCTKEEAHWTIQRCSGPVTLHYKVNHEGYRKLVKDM

[2] = biological target: T2, RAPGEF6, Q8TEU7
T2 sequence (Q8TEU7 525-625, limits assumed, looked up): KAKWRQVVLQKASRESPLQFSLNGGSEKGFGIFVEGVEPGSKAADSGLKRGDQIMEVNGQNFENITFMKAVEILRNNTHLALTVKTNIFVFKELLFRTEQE

[3] = biological target: PARD3_3, Q8TEW0
Sequence of PARD3_3, Q8TEW0 (Q8TEW0 582-685): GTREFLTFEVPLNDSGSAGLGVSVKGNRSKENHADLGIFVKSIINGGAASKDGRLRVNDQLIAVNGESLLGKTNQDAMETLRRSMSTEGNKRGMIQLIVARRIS

[4] = biological target: GRASP, Q7Z6J2
Sequence of GRASP, Q7Z6J2 (Q7Z6J2 96-193): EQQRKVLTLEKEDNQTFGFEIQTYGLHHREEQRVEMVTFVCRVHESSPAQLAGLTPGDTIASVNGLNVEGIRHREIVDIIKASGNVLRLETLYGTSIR

[5] = biological target: T3, APBA3_1, O96018
T3 sequence (O96018 389-490, limits assumed, looked up): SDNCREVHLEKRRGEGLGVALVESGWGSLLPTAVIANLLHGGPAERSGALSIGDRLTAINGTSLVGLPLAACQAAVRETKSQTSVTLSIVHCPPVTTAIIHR

[6] = biological target: FRMPD2_2, Q68DX3
Sequence of FRMPD2_2, Q68DX3 (Q68DX3 944-1038): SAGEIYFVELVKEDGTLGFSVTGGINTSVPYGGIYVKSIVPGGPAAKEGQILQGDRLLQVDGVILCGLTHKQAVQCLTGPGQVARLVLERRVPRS

[7] = biological target: MAGI2_5, Q86UL8
Sequence of MAGI2_5, Q86UL8 (Q86UL8 915-1017): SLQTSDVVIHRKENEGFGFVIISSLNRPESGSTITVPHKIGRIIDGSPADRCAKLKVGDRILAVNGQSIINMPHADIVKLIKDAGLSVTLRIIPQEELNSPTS

[8] = biological target: NHERF4_4, Q86UT5
Sequence of NHERF4_4, Q86UT5 (Q86UT5 464-550): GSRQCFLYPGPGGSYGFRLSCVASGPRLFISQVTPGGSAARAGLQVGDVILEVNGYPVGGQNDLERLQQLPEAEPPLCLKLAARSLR

[9] = biological target: LDB3, O75112
Sequence of LDB3, O75112 (O75112 1-94): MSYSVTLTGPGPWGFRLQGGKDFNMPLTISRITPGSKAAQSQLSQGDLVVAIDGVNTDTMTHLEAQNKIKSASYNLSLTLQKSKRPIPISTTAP

[10] = biological target: T4, LIN7C, Q9NUP9
T4 sequence (Q9NUP9 88-185, limits assumed, looked up): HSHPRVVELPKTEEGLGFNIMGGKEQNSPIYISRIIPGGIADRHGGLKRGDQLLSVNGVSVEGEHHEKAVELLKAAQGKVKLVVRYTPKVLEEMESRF

[11] = biological target: T5, GRIP1_3, Q9Y3R0
T5 sequence (Q9Y3R0 247-346, limits assumed, looked up): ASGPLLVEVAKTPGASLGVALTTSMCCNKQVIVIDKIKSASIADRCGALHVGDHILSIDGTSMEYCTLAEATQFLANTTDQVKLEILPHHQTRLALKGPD

[12] = biological target: HTRA1, Q92743
Sequence of HTRA1, Q92743 (Q92743 360-477): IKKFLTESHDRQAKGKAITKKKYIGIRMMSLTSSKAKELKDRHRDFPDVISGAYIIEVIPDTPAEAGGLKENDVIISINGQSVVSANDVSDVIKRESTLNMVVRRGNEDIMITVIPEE

[13] = biological target: GRID2IP_1, A4D2P6
Sequence of GRID2IP_1, A4D2P6 (A4D2P6 1-87): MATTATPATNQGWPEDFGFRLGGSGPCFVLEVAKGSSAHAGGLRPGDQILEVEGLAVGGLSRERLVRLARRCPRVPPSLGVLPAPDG

[14] = biological target: T6, NHERF3_3, Q5T2W1
T6 sequence (Q5T2W1 238-333, limits assumed, looked up): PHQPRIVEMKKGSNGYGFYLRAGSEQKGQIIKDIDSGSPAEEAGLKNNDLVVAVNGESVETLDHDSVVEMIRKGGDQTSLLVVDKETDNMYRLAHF

[15] = biological target: GRIP2_4, Q9C0E4
Sequence of GRIP2_4, Q9C0E4 (Q9C0E4 446-548): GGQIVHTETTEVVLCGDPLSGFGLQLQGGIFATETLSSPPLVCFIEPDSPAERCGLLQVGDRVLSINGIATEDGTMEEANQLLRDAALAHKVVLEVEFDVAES

[16] = biological target: GRIP2_7, Q9C0E4
Sequence of GRIP2_7, Q9C0E4 (Q9C0E4 934-1023): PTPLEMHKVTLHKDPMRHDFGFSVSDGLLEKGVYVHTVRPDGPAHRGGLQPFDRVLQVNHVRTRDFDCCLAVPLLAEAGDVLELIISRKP

[17] = biological target: SNX27, Q96L92
[18] = biological target: T7, SHANK1, Q9Y566
T7 sequence (Q9Y566 658-767, limits assumed, looked up): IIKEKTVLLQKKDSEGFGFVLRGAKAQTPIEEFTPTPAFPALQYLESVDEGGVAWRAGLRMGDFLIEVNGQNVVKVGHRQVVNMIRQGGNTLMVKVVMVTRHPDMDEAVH

[19] = biological target: Inadl_2, Q8NI35
Sequence of Inadl_2, Q8NI35 (Q8NI35 238-335): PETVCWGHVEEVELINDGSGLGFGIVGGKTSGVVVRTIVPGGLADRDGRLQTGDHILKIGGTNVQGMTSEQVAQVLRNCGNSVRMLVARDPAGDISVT

[20] = biological target: T8, HTRA4, P83105
T8 sequence (P83105 378-476, limits assumed, looked up): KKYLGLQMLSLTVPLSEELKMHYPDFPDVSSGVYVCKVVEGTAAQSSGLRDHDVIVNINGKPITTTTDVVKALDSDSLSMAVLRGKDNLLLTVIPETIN

[21] = biological target: DLG2_2, Q15700
Sequence of DLG2_2, Q15700 (Q15700 189-283): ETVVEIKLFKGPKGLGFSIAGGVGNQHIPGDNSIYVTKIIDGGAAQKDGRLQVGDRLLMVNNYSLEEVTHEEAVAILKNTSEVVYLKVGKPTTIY

[22] = biological target: Inadl_6, Q8NI35
Sequence of Inadl_6, Q8NI35 (Q8NI35 1058-1167): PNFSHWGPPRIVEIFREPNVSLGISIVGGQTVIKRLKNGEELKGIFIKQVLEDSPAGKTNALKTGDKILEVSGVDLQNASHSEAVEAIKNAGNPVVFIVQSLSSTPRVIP

[23] = biological target: LIMK2, P53671
Sequence of LIMK2, P53671 (P53671 143-248): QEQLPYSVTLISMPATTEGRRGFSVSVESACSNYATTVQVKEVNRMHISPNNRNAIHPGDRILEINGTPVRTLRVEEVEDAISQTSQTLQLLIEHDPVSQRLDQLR

[24] = biological target: DLG4_1, P78352
Sequence of DLG4_1, P78352 (P78352 62-152): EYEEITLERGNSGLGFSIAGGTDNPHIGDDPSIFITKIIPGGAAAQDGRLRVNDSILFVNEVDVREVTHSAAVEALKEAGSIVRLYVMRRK

[25] = biological target: T9, DFNB31_1, Q9P202
T9 sequence (Q9P202 135-233, limits assumed, looked up): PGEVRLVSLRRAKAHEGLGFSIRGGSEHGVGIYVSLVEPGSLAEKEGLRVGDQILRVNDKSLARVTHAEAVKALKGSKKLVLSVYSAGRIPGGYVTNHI

[26] = biological target: MAGI3_2, Q5TCQ9
Sequence of MAGI3_2, Q5TCQ9 (Q5TCQ9 398-503): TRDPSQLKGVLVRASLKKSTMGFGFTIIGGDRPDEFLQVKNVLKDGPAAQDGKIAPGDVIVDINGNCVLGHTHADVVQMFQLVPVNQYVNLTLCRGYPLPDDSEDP

[27] = biological target: NHERF2_2, Q15599
Sequence of NHERF2_2, Q15599 (Q15599 142-238): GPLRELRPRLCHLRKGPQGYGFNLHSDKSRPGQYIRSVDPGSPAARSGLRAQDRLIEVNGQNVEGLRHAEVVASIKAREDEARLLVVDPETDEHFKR

[28] = biological target: MAGI2_2, Q86UL8
Sequence of MAGI2_2, Q86UL8 (Q86UL8 410-522): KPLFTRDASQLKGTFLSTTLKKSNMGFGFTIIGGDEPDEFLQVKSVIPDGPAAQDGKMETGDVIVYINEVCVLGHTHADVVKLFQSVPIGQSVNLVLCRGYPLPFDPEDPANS

[29] = plain residues with an end cap or a label only (N-terminal biotin on a linker: ahx)
[30] = plain residues with an end cap or a label only (N-terminal biotin on a linker: ado-ado)

## QPRTWLQSPV [RTKN, Q9BST9]
[1]; [29]
  pKd: below the threshold
[2]; [29]
  pKd: below the threshold
[3]; [29]
  pKd: below the threshold
[4]; [29]
  pKd: 3.9
[5]; [29]
  pKd: below the threshold
[6]; [29]
  pKd: below the threshold
[7]; [29]
  pKd: 4.33
[8]; [29]
  pKd: below the threshold
[9]; [29]
  pKd: below the threshold
[10]; [29]
  pKd: below the threshold
[11]; [29]
  pKd: below the threshold
[12]; [29]
  pKd: below the threshold
[13]; [29]
  pKd: below the threshold
[14]; [29]
  pKd: below the threshold
[15]; [29]
  pKd: below the threshold
[16]; [29]
  pKd: below the threshold
[17]; [29]
  pKd: 4.31
[18]; [29]
  pKd: 3.74
[19]; [29]
  pKd: below the threshold
[20]; [29]
  pKd: below the threshold
[21]; [29]
  pKd: 4.71
[22]; [29]
  pKd: below the threshold
[23]; [29]
  pKd: below the threshold
[24]; [29]
  pKd: 4.19
[25]; [29]
  pKd: 4.35
[26]; [29]
  pKd: 4.53
[27]; [29]
  pKd: below the threshold
[28]; [29]
  pKd: 4.39

## TISFTQTSQF [SLC1A1, P43005]
[1]; [30]
  pKd: below the threshold
[2]; [30]
  pKd: below the threshold
[3]; [30]
  pKd: below the threshold
[4]; [30]
  pKd: 5.31
[5]; [30]
  pKd: below the threshold
[6]; [30]
  pKd: below the threshold
[7]; [30]
  pKd: 4.29
[8]; [30]
  pKd: below the threshold
[9]; [30]
  pKd: 3.58
[10]; [30]
  pKd: below the threshold
[11]; [30]
  pKd: below the threshold
[12]; [30]
  pKd: below the threshold
[13]; [30]
  pKd: below the threshold
[14]; [30]
  pKd: below the threshold
[15]; [30]
  pKd: below the threshold
[16]; [30]
  pKd: below the threshold
[17]; [30]
  pKd: 5.06
[18]; [30]
  pKd: 4.61
[19]; [30]
  pKd: below the threshold
[20]; [30]
  pKd: below the threshold
[21]; [30]
  pKd: below the threshold
[22]; [30]
  pKd: below the threshold
[23]; [30]
  pKd: below the threshold
[24]; [30]
  pKd: below the threshold
[25]; [30]
  pKd: below the threshold
[26]; [30]
  pKd: below the threshold
[27]; [30]
  pKd: 4.42
[28]; [30]
  pKd: below the threshold

## DPAESMESLV [PTPRG, P23470]
[1]; [30]
  pKd: below the threshold
[2]; [30]
  pKd: below the threshold
[3]; [30]
  pKd: 3.93
[4]; [30]
  pKd: 3.62
[5]; [30]
  pKd: below the threshold
[6]; [30]
  pKd: 4.54
[7]; [30]
  pKd: 5.32
[8]; [30]
  pKd: 3.75
[9]; [30]
  pKd: below the threshold
[10]; [30]
  pKd: 3.94
[11]; [30]
  pKd: below the threshold
[12]; [30]
  pKd: 4.41
[13]; [30]
  pKd: below the threshold
[14]; [30]
  pKd: below the threshold
[15]; [30]
  pKd: below the threshold
[16]; [30]
  pKd: below the threshold
[17]; [30]
  pKd: 5.42
[18]; [30]
  pKd: below the threshold
[19]; [30]
  pKd: 3.5
[20]; [30]
  pKd: 3.83
[21]; [30]
  pKd: 4.68
[22]; [30]
  pKd: 3.88
[23]; [30]
  pKd: below the threshold
[24]; [30]
  pKd: 4.59
[25]; [30]
  pKd: below the threshold
[26]; [30]
  pKd: 4.84
[27]; [30]
  pKd: below the threshold
[28]; [30]
  pKd: 4.24

## EIPAQSPTCV [FZD10, Q9ULW2]
[1]; [30]
  pKd: 3.56
[2]; [30]
  pKd: below the threshold
[3]; [30]
  pKd: 3.65
[4]; [30]
  pKd: 4.22
[5]; [30]
  pKd: 3.57
[6]; [30]
  pKd: 3.74
[7]; [30]
  pKd: 3.67
[8]; [30]
  pKd: below the threshold
[9]; [30]
  pKd: below the threshold
[10]; [30]
  pKd: below the threshold
[11]; [30]
  pKd: below the threshold
[12]; [30]
  pKd: 4.57
[13]; [30]
  pKd: 3.72
[14]; [30]
  pKd: 3.57
[15]; [30]
  pKd: below the threshold
[16]; [30]
  pKd: 3.7
[17]; [30]
  pKd: 4.08
[18]; [30]
  pKd: 3.62
[19]; [30]
  pKd: 3.58
[20]; [30]
  pKd: 4.29
[21]; [30]
  pKd: 3.89
[22]; [30]
  pKd: 3.7
[23]; [30]
  pKd: below the threshold
[24]; [30]
  pKd: 4.01
[25]; [30]
  pKd: 3.67
[26]; [30]
  pKd: 4.12
[27]; [30]
  pKd: 3.81
[28]; [30]
  pKd: 4.17

## DFLSTFHIRI [CIB2, O75838]
[1]; [30]
  pKd: below the threshold
[2]; [30]
  pKd: below the threshold
[3]; [30]
  pKd: 4.28
[4]; [30]
  pKd: 3.47
[5]; [30]
  pKd: below the threshold
[6]; [30]
  pKd: below the threshold
[7]; [30]
  pKd: below the threshold
[8]; [30]
  pKd: 4.58
[9]; [30]
  pKd: below the threshold
[10]; [30]
  pKd: below the threshold
[11]; [30]
  pKd: below the threshold
[12]; [30]
  pKd: 4.15
[13]; [30]
  pKd: below the threshold
[14]; [30]
  pKd: below the threshold
[15]; [30]
  pKd: below the threshold
[16]; [30]
  pKd: 4.04
[17]; [30]
  pKd: below the threshold
[18]; [30]
  pKd: below the threshold
[19]; [30]
  pKd: below the threshold
[20]; [30]
  pKd: 3.91
[21]; [30]
  pKd: below the threshold
[22]; [30]
  pKd: below the threshold
[23]; [30]
  pKd: below the threshold
[24]; [30]
  pKd: below the threshold
[25]; [30]
  pKd: 3.55
[26]; [30]
  pKd: 4.3
[27]; [30]
  pKd: below the threshold
[28]; [30]
  pKd: below the threshold
